The target in test [1] is UCHL1 R178Q (from pGEX-6p-1) (human) (UniProt P09936).
In test [2] the target is UCHL1, wild type (from pGEX-6p-1) (human) (UniProt P09936).

Regarding Ub-Rhodamine, the KM of UCHL1-catalyzed hydrolysis of Ub-Rho (Michaelis-Menten kinetics) turned out to be 0.17 µM in test [1] and 0.03 µM in test [2].

The record behind these values is publication PMC11488486.
